Laboratory results from doi:10.1101/2024.10.30.620894 (bioRxiv, 2024).
Each block holds one molecule with its values, some of them ahead of it.

How the values were obtained:
[1] = molecular target: VLDLR(28-797)Δ(751-779)-C-tag (VLDLR ectodomain, VLDLR-ed) (human) (UniProt P98155); assay: ELISA
[2] = molecular target: the molecule itself; assay: SEC

Kd [1]: 1.2 nM
Molecule: receptor-associated protein (RAP) (from UniProt P30533 36-357) (natural protein)

Kd [1]: 80 nM
B1: wild-type clusterin (WT-Clu) (natural protein, human)
chain 1: DQTVSDNELQEMSNQGSKYVNKEIQNAVNGVKQIKTLIEKTNEERKTLLSNLEEAKKKKEDALNETRESETKLKELPGVCNETMMALWEECKPCLKQTCMKFYARVCRSGSGLVGRQLEEFLNQSSPFYFWMNGDRIDSLLENDRQQTHMLDVMQDHFSRASSIIDELFQDRFFTREPQDTYHYLPFSLPHRRPHFFFPKSRIVR
chain 2: SLMPFSPYEPLNFHAMFQPFLEMIHEAQQAMDIHFHSPAFQHPPTEFIREGDDDRTVCREIRHNSTGCLRMKDQCDKCREILSVDCSTNNPSQAKLRRELDESLQVAERLTRKYNELLKSYQWKMLNTSSLLEQLNEQFNWVSRLANLTQGEDQYYLRVTTVASHTSDSDVPSGVTEVVVKLFDSDPITVTVPVEVSRKNPKFMETVAEKALQEYRKKHREE
modifications: N-glycans (six in the whole protein) | N-glycans (six in the whole protein)
stoichiometry N [2]: 2
